# Measurements published in patent US20210009984A1.
# Biological target: mannose-6-phosphate receptors (M6PR) (human)
# Assay: cell-based or functional assay
row,"Km value, Michaelis-Menten constant that represents a half of the maximum absorption rate (intracellular absorption in CCD986SK cells, read by enzyme activity after 24 hours)",Substance
1,0.0109 µM,agalsidase-beta (from UniProt P06280 32-429) (enzyme)
2,0.0116 µM,alpha-galactosidase-Fc fusion protein
